Source: US20190010248A1 (Pieris, published 2019)

Biological target: T1, recombinant CD137-Fc fusion (#838-4B-100, R&D Systems) (human, UniProt Q07011 24-186)
T1 construct: also called Fc-fusion of human CD137; human CD137-Fc; not shown: Fc part of the bought fusion
Assay: ELISA, CD137-Fc coated, detection with anti-hNGAL antibody-HRP

B1: lipocalin mutein of SEQ ID NO: 2 (designed binder)
chain: QDSTSDLIPAPPLSKVPLQQNFQDNQFHGKWYVVGQAGNIRLREDKDPIKMMATIYELKEDKSYDVTMVKFDDKKCMYDIWTFVPGSQPGEFTLGKIKSFPGHTSSLVRVVSTNYNQHAMVFFKFVFQNREEFYITLYGRTKELTSELKENFIRFSKSLGLPENHIVFPVPIDQCIDG
notes: also called positive control lipocalin mutein; CD137-specific lipocalin mutein in monomeric form
  EC50: 490 pM
